± gives the uncertainty stated by the source.
Experiment: amyloid nucleation score (Sup35N fusion, yeast selection) (log enrichment); library NNK3; higher = more nucleation; inactive = no reads after selection
Summary of the method: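 Psi-negative yeast expressed Sup35N fused to peptides of 20 random codons. They were induced 24 hours with 100 μM copper sulfate, grown 7 days at 30°C without adenine and uracil, and their plasmid inserts from input and output were Illumina-sequenced. The nucleation score is the DiMSum log enrichment of output over input reads, centred on the mode score of non-aggregating sequences. Sequences with under 100 input reads were excluded.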

Substance	amyloid nucleation score
MYEVVRVKYMVAQQFNISSE	inactive
MYGLHLNPALITVYFRGKGL	-0.018 ± 0.34
MYRLVGHLTIHVVMVLAQWW	inactive
MYVYSYQVYNLTCARLAKK	inactive
MYYSSYR	inactive
NACVNEWRPKCQVSWGGPSF	-0.385 ± 0.93
NADTYNRSDEKMTGRYWDRR	inactive
NARHFIRYATFCCQYASRCG	0.928 ± 0.18
NASNHSVSTRCVVDRG	inactive
NATIKIFTTIISDYQFGMR	0.152 ± 0.3
NAYCPPSLCVKRLYLFRMTK	inactive
NCCCLYP	1.71 ± 0.091
NCDCSIAEPESILRFESPRE	inactive
NCFMRLMVFAKRVIGCLQPP	0.15 ± 0.43
NCKMWRYKVESNCPGMICRC	inactive
NCMELLWCCSCSSVICVMHH	2.96 ± 0.07
NCRGPCFKSKCSLIPRYTFV	inactive
NCRVMEISIGKAKQSWNFVM	inactive
NCYNQYRSSWRLTCCLF	3.34 ± 0.064
NDASPLFSKGVLDFLSTKSL	inactive
NDASVLRNSPELSESFRGKW	inactive
NDGLAQSNIEIKDYRCRQNY	inactive
NDHLSCVRMVLHSMGCHKWS	-0.181 ± 0.88
NDIMKTCFFNTYAYHLSVVM	inactive
NDMFRVSCSQNSESQYNLNG	inactive
NDNIDPTRVIQ	inactive

Substance	amyloid nucleation score
NDTFVY	inactive
NDYCPLYIGHVGRFHPAKDV	inactive
NELGEIAYGCGFRVVCRCMR	inactive
NFCFDSPLIFPDCQLG	inactive
NFFWFYWIWKSSGGYTGWLL	inactive
NFGQNCN	-0.48 ± 0.57
NFGRAQSNACAENVFAIERG	inactive
NFMYTWKRSMFYSNCKH	inactive
NFQVDNVGSYS	inactive
NFSMCINRNKVPCVHLLDTL	inactive
NFSTRTGIITIGFCRVCGMR	1.97 ± 0.096
NFTRPLSWNYLR	inactive
NFVRRHWRWRGMSFSLVNSY	inactive
NFVVKCICWAYFPHVDGFYF	inactive
NFWFCLISYCESFSMISERG	inactive
NGFGSNNVGSGERLADVAVI	inactive
NGFRI	inactive
NGKLVFCWDKFIYVYRLTWW	inactive
NGLRRSVLGLRL	inactive
NGNNLIRVFVWYYDNS	2.99 ± 0.08
NGRNSRQTVIRIVSRWVVNH	inactive
NGTLSYCPDKELSTLVFLHY	inactive
NGVVMVKSRNVPADKSNCDG	inactive
NGYFLSQGGLLSLIMHFKIV	-0.041 ± 0.77
NHCYLLL	inactive
NHLLSSSGSNGMLKLIRFIG	inactive

Substance	amyloid nucleation score
NHLSPMRTKLYLKETNPSSA	inactive
NIAIVW	inactive
NIHFSITAQ	inactive
NIIKSTVIY	inactive
NIIKTLAVRSGRRFRFLVRW	inactive
NIILCCAKVFKPYMSTMTTP	1.98 ± 0.061
NILEYYLLTGLYVAFLYLNR	inactive
NINRSPWLIGWGLPKLKRDH	inactive
NINSTFQRQVLSDCLVQWYM	inactive
NINVRTELVQRKGNILP	0.213 ± 0.17
NIRWMFNLYACRLLRLVHF	0.44 ± 0.23
NISWVAFMIVLHLDRLNMF	inactive
NIVERQDLLLGLANNWLHLT	inactive
NIVQYVWVDDWVFRCRCGAK	3.15 ± 0.069
NIWESAVPWVTDALVYKNRV	-0.323 ± 0.96
NKHMGKQLAIAMAVRCAYSG	0.326 ± 0.33
NKNGSHL	inactive
NKYLMINLGYQGSKENDIGV	inactive
NLAFTNVKVWVWSFSLLLYC	inactive
NLAIL	inactive
NLCQSAGRFCWG	inactive
NLCSCDNWRRRRCASMWALV	inactive
NLDRLWTNQGFAFWIRTYVV	inactive
NLEFFCKDV	inactive
NLFSEFGMFNGKGPVGTSVG	inactive
NLHNVMRKFTQGFSGHKTKL	inactive
